Assay results: US20140170144A1 (CELLMID, published 2014)

Biological target: T1, recombinant human midkine (MK17) (Homo sapiens, UniProt P21741 23-143)
T1 construct: The signal is left out; It gives a molecular weight of 13.4 kDa; also called human MK; MK17 protein
T1 sequence: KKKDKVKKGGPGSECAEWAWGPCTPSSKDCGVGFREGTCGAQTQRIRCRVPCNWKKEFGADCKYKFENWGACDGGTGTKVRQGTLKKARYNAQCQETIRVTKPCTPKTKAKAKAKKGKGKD
Assay: SPR (Biacore), antibody amine coupled to CM-4 chip, midkine 0-20 nM as analyte
Experimental: Antibody IP-13 (2.85 mg/ml) was diluted to 5.7 μg/ml in Biacore acetate pH 4.5 buffer and amine coupled to of flow cell (FC) #3 of a CM-4 chip. Approximately 750 units were aimed to be immobilized onto Flow cells (FC) #3 of the CM-4 chip; and FC#1 was blocked using EDC/NHS followed by ethanolamine and was used as reference during the study.
Recombinant human midkine was diluted to 15 μM (1 μl of 10 mg/ml in 50 μl of HBS-EP buffer, the calculation was based on molecular weight of 13.4 kDa). Various dilutions of human midkine using HBS-EP buffer were prepared (0, 1, 2, 3, 4, 5, 10 and 20 nM).

Ka: 5e+08 M⁻¹
Kd: 2.02 nM
koff: 0.0028 s⁻¹
kon: 1.4e+06 M⁻¹ s⁻¹
B1: monoclonal antibody IP-13 (antibody, V domains shown)
VH: EVQLQQSGPELVKPGASVKIPCKASGYTFTDYNMGWVKQSHGKSLEWIGDINPNNGGTIYNQKFKGKATLTVDKSSSTAYMELRSLTSEDTAVYYCARWSYSNPYFDYWGQGTTLTVSS
VL: SIVMTQTPNFLLVSAGDRVTITCKASQSVSNDVSWYQQKPGQSPKLLIYYASNLYTGVPDRFTGSGYGTDFTFTISTVQAEDLAVYFCQQDYSSPWTFGGGTKLEIK
notes: also called mAb IP-13
